A short description of data set [1]: ELISA of EREG in HEK293 conditioned medium. As to conditions: glycan lost; control: EREG-WT. (In an ELISA, binding on a coated surface is turned into a signal by an enzyme label.)
Data set [2] in a line: IF of GFP-EREG in HEK293, membrane localisation. The note with it: glycan lost; control: GFP-EREG-WT, untreated.
Data set [3] in a line: CHX chase immunoblot, protein remaining. The note with it: glycan lost; control: untreated. On the technique in general: Immunoblotting shows a protein as a band on a membrane.

Epiregulin (EREG): N47Q: the expression_or_secretion result in data set [1] is listed as “decreases”. Moreover, the localisation_or_trafficking entry in data set [2] is given as “decreases”.

With Epiregulin (EREG): tunicamycin, the degradation_or_half_life result in data set [3] is on record as “decreases”. For the same substance, the localisation_or_trafficking entry in data set [2] was “decreases”.

As for Epiregulin (EREG): NGI-1, in data set [3], the degradation_or_half_life entry is “decreases”. In data set [2], the localisation_or_trafficking entry is “decreases”.

Values taken from paper PMC11214941.
